The RNAGym collection of RNA variant scans (doi:10.7554/elife.90254)

B1: LINE1-mini (parent)
chain: GGCAGAGCUCAACACAGCGUGGCAAAGUGGCUGUGGCUAGACUGCC

Variants of: B1
Assay: self-cleavage, relative activity (ratio to wild type); higher = more cleavage; in vitro, sequencing; the parent is a self-cleaving ribozyme

Variant | self-cleavage
GGCAGAGCUCAACACAGCCUGGCAAAGCGGCUGUGGCUAGACUGCC [G19C U28C] | 0.6
GGCAGAGCUCAACACAGCCUGGCAAAGGGGCUGUGGCUAGACUGCC [G19C U28G] | 0.37
GGCAGAGCUCAACACAGCCUGGCAAAGAGGCUGUGGCUAGACUGCC [G19C U28A] | 1.2
GGCAGAGCUCAACACAGCUUGGCAAAGUGGCUGUGGCUAGUCUGCC [G19U A41U] | 0.41
GGCAGAGCUCAACACAGCUUGGCAAAGUGGCUGUGGCUAGGCUGCC [G19U A41G] | 0.2
GGCAGAGCUCAACACAGCUUGGCAAAGUGGCUGUGGCUAGCCUGCC [G19U A41C] | 0.03
GGCAGAGCUCAACACAGCCUGGCAAAGUAGCUGUGGCUAGACUGCC [G19C G29A] | 0.92
GGCAGAGCUCAACACAGCCUGGCAAAGUUGCUGUGGCUAGACUGCC [G19C G29U] | 0.54
GGCAGAGCUCAACACAGCCUGGCAAAGUCGCUGUGGCUAGACUGCC [G19C G29C] | 0.54
GGCAGAGCUCAACACAGCUUGGCAAAGUGGCUGUGGCUGGACUGCC [G19U A39G] | 0.06
GGCAGAGCUCAACACAGCUUGGCAAAGUGGCUGUGGCUCGACUGCC [G19U A39C] | 0.06
GGCAGAGCUCAACACAGCUUGGCAAAGUGGCUGUGGCUUGACUGCC [G19U A39U] | 0.58
GGCAGAGCUCAACACAGCUUGGCAACGUGGCUGUGGCUAGACUGCC [G19U A26C] | 0.61
GGCAGAGCUCAACACAGCUUGGCAAUGUGGCUGUGGCUAGACUGCC [G19U A26U] | 0.56
GGCAGAGCUCAACACAGCCUGGCAAAUUGGCUGUGGCUAGACUGCC [G19C G27U] | 0.43
GGCAGAGCUCAACACAGCCUGGCAAACUGGCUGUGGCUAGACUGCC [G19C G27C] | 0.61
GGCAGAGCUCAACACAGCCUGGCAAAGUGGCUGUGCCUAGACUGCC [G19C G36C] | 0.05
GGCAGAGCUCAACACAGCCUGGCAAAGUGGCUGUGACUAGACUGCC [G19C G36A] | 0.09
GGCAGAGCUCAACACAGCCUGGCAAAGUGGCUGUGUCUAGACUGCC [G19C G36U] | 0.06

Variant | self-cleavage
GGCAGAGCUCAACACAGCCUGGCAAAGUGGCUAUGGCUAGACUGCC [G19C G33A] | 0.15
GGCAGAGCUCAACACAGCCUGGCAAAGUGGCUUUGGCUAGACUGCC [G19C G33U] | 0.34
GGCAGAGCUCAACACAGCCUGGCAAAGUGGCUCUGGCUAGACUGCC [G19C G33C] | 0.12
GGCAGAGCUCAACACAGCCUGGCAAAGUGGCUGUGGCUAGACCGCC [G19C U43C] | 0.03
GGCAGAGCUCAACACAGCCUGGCAAAGUGGCUGUGGCUAGACGGCC [G19C U43G] | 0.02
GGCAGAGCUCAACACAGCCUGGCAAAGUGGCUGUGGCUAGACAGCC [G19C U43A] | 0.02
GGCAGAGCUCAACACAGCCUGGCAAAGUGACUGUGGCUAGACUGCC [G19C G30A] | 0.91
GGCAGAGCUCAACACAGCCUGGCAAAGUGUCUGUGGCUAGACUGCC [G19C G30U] | 0.54
GGCAGAGCUCAACACAGCCUGGCAAAGUGCCUGUGGCUAGACUGCC [G19C G30C] | 1
GGCAGAGCUCAACACAGCCUGGCAAAGUGGCUGUCGCUAGACUGCC [G19C G35C] | 0.17
GGCAGAGCUCAACACAGCCUGGCAAAGUGGCUGUAGCUAGACUGCC [G19C G35A] | 0.17
GGCAGAGCUCAACACAGCCUGGCAAAGUGGCUGUUGCUAGACUGCC [G19C G35U] | 0.07
GGCAGAGCUCAACACAGCCUGGCAAAGUGGCUGUGGCCAGACUGCC [G19C U38C] | 0.28
GGCAGAGCUCAACACAGCCUGGCAAAGUGGCUGUGGCGAGACUGCC [G19C U38G] | 0.01
GGCAGAGCUCAACACAGCCUGGCAAAGUGGCUGUGGCAAGACUGCC [G19C U38A] | 0.05
GGCAGAGCUCAACACAGCCUGGCAAAGUGGCUGUGGCUAGACUCCC [G19C G44C] | 0.12
GGCAGAGCUCAACACAGCCUGGCAAAGUGGCUGUGGCUAGACUACC [G19C G44A] | 0.15
GGCAGAGCUCAACACAGCCUGGCAAAGUGGCUGUGGCUAGACUUCC [G19C G44U] | 0.15
GGCAGAGCUCAACACAGCCUGGCAAAGUGGCUGUGGCUAAACUGCC [G19C G40A] | 0.06

Variant | self-cleavage
GGCAGAGCUCAACACAGCCUGGCAAAGUGGCUGUGGCUACACUGCC [G19C G40C] | 0.06
GGCAGAGCUCAACACAGCCUGGCAAAGUGGCUGUGGCUAUACUGCC [G19C G40U] | 0.08
GGCAGAGCUCAACACAGCCUGGCAAAGUGGCUGGGGCUAGACUGCC [G19C U34G] | 0.14
GGCAGAGCUCAACACAGCCUGGCAAAGUGGCUGAGGCUAGACUGCC [G19C U34A] | 0.28
GGCAGAGCUCAACACAGCCUGGCAAAGUGGCUGCGGCUAGACUGCC [G19C U34C] | 1.22
GGCAGAGCUCAACACAGCCAGGCAAAGUGGCUGUGGCUAGACUGCC [G19C U20A] | 0.3
GGCAGAGCUCAACACAGCCCGGCAAAGUGGCUGUGGCUAGACUGCC [G19C U20C] | 0.61
GGCAGAGCUCAACACAGCCGGGCAAAGUGGCUGUGGCUAGACUGCC [G19C U20G] | 0.4
GGCAGAGCUCAACACAGCCUGGCAAAGUGGCGGUGGCUAGACUGCC [G19C U32G] | 0.43
GGCAGAGCUCAACACAGCCUGGCAAAGUGGCAGUGGCUAGACUGCC [G19C U32A] | 0.16
GGCAGAGCUCAACACAGCCUGGCAAAGUGGCCGUGGCUAGACUGCC [G19C U32C] | 0.14
GGCAGAGCUCAACACAGCUUGGCUAAGUGGCUGUGGCUAGACUGCC [G19U A24U] | 0.81
GGCAGAGCUCAACACAGCUUGGCGAAGUGGCUGUGGCUAGACUGCC [G19U A24G] | 0.45
GGCAGAGCUCAACACAGCUUGGCCAAGUGGCUGUGGCUAGACUGCC [G19U A24C] | 0.73
GGCAGAGCUCAACACAGCUUGGCAAAGUGGCUGUGGCUAGACUGCC [G19U] | 0.77
GGCAGAGCUCAACACAGCUUGGCAGAGUGGCUGUGGCUAGACUGCC [G19U A25G] | 0.49
GGCAGAGCUCAACACAGCUUGGCAUAGUGGCUGUGGCUAGACUGCC [G19U A25U] | 0.67
GGCAGAGCUCAACACAGCUUGGCACAGUGGCUGUGGCUAGACUGCC [G19U A25C] | 0.61
